The target in this experiment is EEEV PE6 virus-like particle (Eastern equine encephalitis virus, strain PE6). In words: BLI. On the technique in general: In BLI a coated tip is dipped into the sample, and binding shifts an interference pattern.

For orientation: Kd means a measure of binding affinity in units of concentration. A low value points to a tighter complex. Consider “VLDLR LA3-4-Fc (from UniProt P98155-1 111-190) (Fc fusion)”, for which the Kd worked out at 3900 nM. This lies in the single-digit micromolar range.
To “VLDLR LA2-3-Fc (from UniProt P98155-1 70-151) (Fc fusion)” belongs 1800 nM.
Consider S. vulgaris VLDLR LA1-8-Fc (Fc fusion), for which the Kd is 11 nM.
“VLDLR LA5-6-Fc (from UniProt P98155-1 191-275) (Fc fusion)” returned a Kd of 4200 nM.
For the substance “VLDLR LA1-2-Fc (from UniProt P98155-1 28-113) (Fc fusion)”, the Kd stood at 505 nM.
Take “VLDLR LA2-4-Fc (from UniProt P98155-1 70-190) (Fc fusion)”: the Kd was 1100 nM.
The substance ApoER2_(iso2) LA1-3-Fc (Fc fusion) yielded a Kd of 705 nM.
To “VLDLR LA2-5-Fc (from UniProt P98155-1 70-231) (Fc fusion)” belongs 42.5 nM.
Substance “VLDLR LA3-5-Fc (from UniProt P98155-1 111-236) (Fc fusion)” came in with a Kd of 32.3 nM.
“VLDLR LA4-5-Fc (from UniProt P98155-1 152-236) (Fc fusion)” showed a Kd of 11900 nM.
As for “VLDLR LA3-6-Fc (from UniProt P98155-1 111-276) (Fc fusion)”, the equilibrium dissociation constant (Kd) is 71.5 nM. This Kd is about 170-fold lower than that of the substance before.
Take “VLDLR LA1-3-Fc (from UniProt P98155-1 28-152) (Fc fusion)”: the Kd was found to be 363 nM.
Consider “VLDLR LA4-6-Fc (from UniProt P98155-1 152-275) (Fc fusion)”, for which the Kd stood at 2300 nM.

These data come from paper PMC11316819.
